Laboratory results as given in article PMC6370476.

Biological target: SpyTag-γPFD-Cys (not stated | Methanocaldococcus jannaschii)
Assay: leaching of fluorescent protein from the hydrogel, fluorescence of the buffer

SpyCatcher-mCerulean3 was tested. Which percent leached from the hydrogel after two weeks did it give?
The percent leached from the hydrogel after two weeks was 35%.
